Where a chain is given by its changes, count along the chain named.

Drawing on US20260258125A1 (NONA BIOSCIENCES SUZHOU, published 2026), this text covers co-binding rate and EC50 for two molecules.

The target of test [1] is T1, recombinant CEACAM5-his protein, biotinylated (UniProt P06731 35-685, limits assumed, biotinylated (sites not given)).
T1 construct: not shown: His tag
T1 sequence (looked up): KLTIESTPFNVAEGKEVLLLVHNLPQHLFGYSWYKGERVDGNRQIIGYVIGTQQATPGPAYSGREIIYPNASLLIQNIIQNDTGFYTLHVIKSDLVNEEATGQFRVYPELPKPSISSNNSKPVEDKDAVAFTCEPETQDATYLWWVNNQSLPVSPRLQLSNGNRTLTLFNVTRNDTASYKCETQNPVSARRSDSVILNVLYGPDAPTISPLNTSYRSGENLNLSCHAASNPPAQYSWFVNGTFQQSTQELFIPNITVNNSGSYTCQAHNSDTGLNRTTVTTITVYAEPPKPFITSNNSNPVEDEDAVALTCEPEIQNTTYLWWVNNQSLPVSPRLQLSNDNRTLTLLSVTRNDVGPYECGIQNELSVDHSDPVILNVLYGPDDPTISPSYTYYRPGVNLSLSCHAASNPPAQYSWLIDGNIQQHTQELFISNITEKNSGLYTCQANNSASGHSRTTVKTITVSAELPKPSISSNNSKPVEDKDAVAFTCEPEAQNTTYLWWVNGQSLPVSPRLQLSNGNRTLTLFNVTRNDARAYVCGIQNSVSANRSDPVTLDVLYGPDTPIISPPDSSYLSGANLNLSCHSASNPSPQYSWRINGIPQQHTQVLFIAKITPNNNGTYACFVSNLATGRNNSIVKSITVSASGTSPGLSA
Description: Octet epitope binning on biotinylated CEACAM5-his; competitor PR304169. Here is the method:
(§1) In epitope binning analysis using Octet, antibodies were tested against other antibodies in a pairwise fashion to see if antibodies block one another's binding to the epitope of the antigen. The first and second antibodies was diluted into same concentration which could saturate the binding of immobilized antigens. Recombinant CEACAM5-his protein was biotinylationed and was then used as antigen and immobilized to SA sensor. The first antibody was associated with antigen and then followed by the second antibody. Data were analyzed by ForteBio Data Analysis Software (version 8.0, Pall ForteBio). The rate of RU values of the same antibody as 2nd antibody to as 1st antibody was calculated as the co-binding rate of this antibody to other antibodies.
For orientation: Biolayer interferometry detects binding as a change in optical thickness at a sensor tip.

In test [2] the target is T2, human CEACAM5 on 293T cells (293T-huCEACAM5 cells) (human, UniProt P06731 35-685).
T2 construct: whole, on cells
T2 sequence (looked up): T1 sequence (looked up)
The experiment in a line: flow cytometry on 293T-huCEACAM5 cells. The method, then: (§2) Binding of recombinant anti-CEACAM5/6 dual-binding antibodies against human or cynomolgus CEACAM5 or CEACAM6 stable cells were detected by flow cytometry. […] Anti-CEACAM5/6 dual-binding antibodies were incubated with the stable cell lines. Anti-CEACAM5/6 dual-binding antibodies were serially diluted in staining buffer (PBS containing 2% FBS). 50 μL of diluted antibody solution was added to 50 μL of cell suspension containing 1-2×10⁵ cells and incubated at 4° C. for 1 hour. […] After 1-hour incubation at 4° C., cells were washed twice and run on a flow cytometer. […] The results were shown in FIGS. 8-10 and Tables 6 below.
For orientation: A flow cytometer gives signals particle by particle.

The target of test [3] is T3, cynomolgus CEACAM5 on CHO-K1 cells (CHOK1-cyno CEACAM5 cells) (cynomolgus monkey).
T3 construct: whole, on cells; also called CHOK1-cynoCECAM5
Description: flow cytometry on CHOK1-cyno CEACAM5 cells. Here is the method: as §2

Test [4] deals with T1, recombinant CEACAM5-his protein, …. Description: Octet epitope binning on biotinylated CEACAM5-his; competitor PR304294. The method, then: as §1
For test [5] the target is unchanged. Description: Octet epitope binning on biotinylated CEACAM5-his; competitor PR304171. The method, then: as §1
The next test has as its target T4, human CEACAM5 protein (human, UniProt P06731 35-685).
T4 construct: also called huCEACAM5
T4 sequence (looked up): T1 sequence (looked up)
Description: ELISA, antigen coated on plate. The source says: (§3) Binding of recombinant anti-CEACAM5/6 dual-binding monoclonal antibodies against human and cynomolgus CEACAM5, and human CEACAM6 (Uniprot P40199), human CEACAM 1, 3 (NP_001806.2, Sino Biological 11933-H08H) and 8 (NP_001807.2, Acro Bio CE8-H5224) were detected by ELISA. Anti-CEACAM5/6 dual-antibodies were serially diluted in staining buffer (PBS containing 2% FBS). […] ELISA was used to test the binding between antibody containing supernatant or purified antibodies and the antigen. Briefly, the antigens were coated on a 96-well high binding plate overnight at 4° C. The plate was washed with PBST three times, incubated with blocking buffer (2% Bovine Serum Albumin) for one hour at 37° C., washed with PBST three times and incubated with antibody containing supernatant or purified antibodies at desired dilutions or concentrations for one hour at 37° C. A secondary antibody, anti-human Fc-HRP (Jackson Laboratory, 109-035-097) was used for detection of the targeted antibody. TMB and stopping solution were used for detection of HRP signal. The HRP signal was read on a SPECTRAMAX plate reader.

For a further test, the target named is T5, cyno CEACAM5 protein (cynomolgus monkey).
T5 construct: also called cynomolgus CEACAM5
Description: ELISA, antigen coated on plate.
Text: as §3

The target of a further test is T6, human CEACAM6 protein (human, UniProt P40199 35-320).
T6 construct: also called huCEACAM6
T6 sequence (looked up): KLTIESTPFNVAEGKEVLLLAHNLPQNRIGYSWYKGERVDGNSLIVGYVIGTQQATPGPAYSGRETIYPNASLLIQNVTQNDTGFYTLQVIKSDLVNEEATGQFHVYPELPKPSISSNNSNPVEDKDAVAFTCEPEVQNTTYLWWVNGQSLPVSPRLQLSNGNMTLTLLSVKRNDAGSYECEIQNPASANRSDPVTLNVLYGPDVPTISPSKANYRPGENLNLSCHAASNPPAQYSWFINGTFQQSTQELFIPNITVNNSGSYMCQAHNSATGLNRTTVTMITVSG
The experiment in a line: ELISA, antigen coated on plate.
Text: as §3
A general note: In an ELISA, binding on a coated surface is turned into a signal by an enzyme label.

The target of test [6] is T7, human CEACAM6 on 293T cells (293T-huCEACAM6 cells) (human, UniProt P40199 35-320).
T7 construct: whole, on cells
T7 sequence (looked up): T6 sequence (looked up)
Description: flow cytometry on 293T-huCEACAM6 cells. The method, then: as §2

For test [7], the target named is T1, recombinant CEACAM5-his protein, …. The experiment in a line: Octet epitope binning on biotinylated CEACAM5-his; competitor PR303561. The method, then: as §1

B1: PR304294 (antibody, human IgG1, kappa, V domains shown)
VH: EVQLLESGGGLVQPGGSLRLSCAASGFTFSSYAMSWVRQAPGKGLEWVSAISGTTYNTYYAGSVKGRFTISRDNSKNTLYLQMNSLRAEDTAVYYCAKGISVAGYYYYGMDVWGQGTTVTVSS
VL: EIVMTQSPATLSVSPGERATLSCRASQSVISNLAWYQQKPGQAPRLLIYGASTRATGIPARFSGSGSGTEFTLTISSLQSEDFAVYYCHQYNNWPLTFGGGTKVEIKR
notes: Recombinant full antibody
What is called EC50 is the concentration needed to bring the measured effect to its halfway point. A low value points to greater potency. As to B1, the co-binding rate in test [1] is 1.02%; in [4] it was 1.8%; in test [5] it was -4.88%; in [7] it was 102%. For the same molecule, the EC50 amounted to 1.26 nM in [2]; 2.51 nM in test [3]; 0.04 nM with human CEACAM5 protein; 0.09 nM with cyno CEACAM5 protein; 0.22 nM with human CEACAM6 protein; 1.32 nM in test [6].

B2: PR304171 (antibody, human IgG1, kappa, V domains shown)
VH: not shown
VL: B1 VL with S28N, Y36H, G50T, A51T, H89Q
notes: Recombinant full antibody
With B2, the co-binding rate was determined as 20.4% in [1], 24.4% in [4], 13.7% in [5] and 101% in [7]. Besides, the EC50 turned out to be 3.64 nM in test [2]; 14.9 nM in test [3]; 0.15 nM in the test with human CEACAM5 protein; 1.25 nM with cyno CEACAM5 protein; 24.1 nM in the test with human CEACAM6 protein; 10.6 nM in [6].
